Test results: the Human Domainome abundance scans (Beltran et al. 2025)
± gives the uncertainty stated by the source.

B1: CD2-associated protein, residues 109 to 169; numbered along this chain, Q9Y5K6 (parent)
chain: KKRQCKVLFEYIPQNEDELELKVGDIIDINEEVEEGWWSGTLNNKLGLFPSNFVKELEVTD
B2: F-BAR and double SH3 domains protein 1, residues 467 to 528; numbered along this chain, Q86WN1 (parent)
chain: RALPCPAHVVFRYQAGREDELTITEGEWLEVIEEGDADEWVKARNQHGEVGFVPERYLNFPD

Variants of: B1
Test: abundance fitness (aPCA) (normalised: wild type 0, dead -1); higher = more abundant; growth selection in yeast, the domain comes from the species named
Conditions: Homo sapiens

Variant | abundance fitness
L57A | -0.585 ± 0.4
L57G | -0.864 ± 0.44
K45M | -0.55 ± 0.28
D28S | -0.368 ± 0.1
D28A | -0.536 ± 0.19
E58R | -0.232 ± 0.1
D25Q | -0.39 ± 0.34
E35Q | -0.153 ± 0.19
L8I | 0.118 ± 0.15
V23Q | -0.071 ± 0.17
V7G | -1.24 ± 0.32
T41H | -0.158 ± 0.25
T41K | -0.229 ± 0.3
W37D | -0.387 ± 0.4
N30S | -0.11 ± 0.1
G24A | -0.783 ± 0.28
S51V | -0.069 ± 0.067
S51F | -0.431 ± 0.26
I29N | -0.431 ± 0.21
I29A | -0.833 ± 0.35
I29F | -0.274 ± 0.15
Y11R | 0.072 ± 0.094
Y11N | -0.344 ± 0.42
Y11A | -0.539 ± 0.17
R3I | -0.409 ± 0.1
R3M | -0.228 ± 0.15
R3N | -0.388 ± 0.11

Variant | abundance fitness
R3K | -0.33 ± 0.2
C5P | -0.945 ± 0.17
L48V | -0.067 ± 0.055
N15C | -0.3 ± 0.13
V59W | -0.117 ± 0.079
N43C | -0.19 ± 0.37
F49C | -0.953 ± 0.34
F49W | -1.01 ± 0.25
I27M | -0.716 ± 0.24
I27G | -0.939 ± 0.44
F9E | 0.173 ± 0.13
F9Q | 0.083 ± 0.12
L42W | -0.945 ± 0.45
S39W | -0.03 ± 0.12
G47F | -0.784 ± 0.28
G40F | -0.477 ± 0.16
E16K | -0.434 ± 0.24
E32M | 0.178 ± 0.19
E32T | -0.094 ± 0.18
L46A | 0.031 ± 0.069
L46K | 0.069 ± 0.099
N52K | 0.048 ± 0.16
K2M | 0.011 ± 0.21
K2P | -0.293 ± 0.28
I26L | -0.245 ± 0.096
E34H | 0.179 ± 0.14

Variants of: B2
Test: as above
Conditions: Homo sapiens

Variant | abundance fitness
G16W | -0.245 ± 0.067
G16S | 0.019 ± 0.055
G16N | 0.113 ± 0.13
G16Q | 0.019 ± 0.083
W40Y | 0.079 ± 0.098
W40D | 0.028 ± 0.14
W40C | -0.181 ± 0.061
W40S | -0.25 ± 0.05
W40E | -0.196 ± 0.09
V50S | -0.148 ± 0.068
V50N | -0.737 ± 0.25
V50F | -0.29 ± 0.09
T24I | -0.063 ± 0.12
R17F | -0.214 ± 0.083
R17L | -0.375 ± 0.053
G26W | -0.474 ± 0.11
G26Y | -0.564 ± 0.13
G26P | -0.776 ± 0.1
E30S | -0.125 ± 0.065
G35V | -0.005 ± 0.061
G35M | -0.202 ± 0.08
G35T | 0.063 ± 0.088
P61S | 0.091 ± 0.052

Variant | abundance fitness
P61M | -0.088 ± 0.076
K42T | -0.076 ± 0.069
K42C | -0.25 ± 0.11
K42Y | -0.381 ± 0.15
P4E | -0.285 ± 0.12
P4A | -0.496 ± 0.11
P4L | -0.567 ± 0.076
P4N | -0.194 ± 0.17
E25F | -0.37 ± 0.16
E25A | -0.129 ± 0.078
E25D | -0.014 ± 0.17
N59A | 0.054 ± 0.06
N59V | -0.078 ± 0.046
N59H | 0.003 ± 0.086
E39V | -0.184 ± 0.054
Y13I | -0.742 ± 0.17
Y13R | -0.226 ± 0.061
E33N | -0.183 ± 0.095
E33I | -0.785 ± 0.21
E33K | -0.344 ± 0.15
E33H | -0.193 ± 0.077
E33Y | -0.56 ± 0.12
F60G | -0.555 ± 0.063

Variant | abundance fitness
F60Q | -0.778 ± 0.11
F60C | -0.275 ± 0.065
F60I | -0.154 ± 0.069
E49A | -0.131 ± 0.093
I23T | -0.227 ± 0.076
I23W | -0.572 ± 0.1
I23M | -0.269 ± 0.045
V31D | -0.992 ± 0.32
G48P | -0.623 ± 0.1
G48I | -0.787 ± 0.22
N45I | -0.212 ± 0.14
N45F | -0.869 ± 0.17
N45K | -0.447 ± 0.1
N45T | -0.402 ± 0.11
E34R | -0.044 ± 0.049
R12L | -0.265 ± 0.046
R12T | 0.023 ± 0.097
A37W | -0.044 ± 0.064
E18A | -0.228 ± 0.073
Q14W | -0.481 ± 0.11
T22V | -0.898 ± 0.1
T22D | -0.117 ± 0.097
G51E | -0.863 ± 0.18

Variant | abundance fitness
A7Y | -0.528 ± 0.21
D36A | -0.165 ± 0.077
P54Q | -0.117 ± 0.063
R44G | -0.898 ± 0.088
R44Y | -0.587 ± 0.13
L58G | -0.73 ± 0.063
L58I | -0.088 ± 0.08
V9E | -0.411 ± 0.12
V9K | -0.598 ± 0.11
H8W | -0.041 ± 0.12
H8C | -0.28 ± 0.11
H8M | -0.245 ± 0.084
L3N | -0.127 ± 0.082
L3F | 0.05 ± 0.061
D38I | -0.066 ± 0.076
A15V | -0.585 ± 0.093
A15R | -0.178 ± 0.043
A15T | -0.714 ± 0.13
W28K | -0.004 ± 0.1
A2N | 0.147 ± 0.12
A2R | 0.053 ± 0.039
D62Y | -0.17 ± 0.079
R56L | -0.117 ± 0.037

Variant | abundance fitness
R56A | 0.035 ± 0.06
Q46M | -0.088 ± 0.072
Q46G | -0.082 ± 0.061
Y57G | -0.44 ± 0.065
Y57H | 0.208 ± 0.086
Y57W | -0.281 ± 0.11
Y57P | -0.613 ± 0.1
D19C | 0.087 ± 0.099
D19S | 0.044 ± 0.039
D19L | -0.086 ± 0.037
D19Y | -0.04 ± 0.076
F52Y | 0.093 ± 0.085
P6D | -0.432 ± 0.14
P6R | -0.077 ± 0.046
H47P | -0.585 ± 0.11
H47W | -0.176 ± 0.08
E20M | -0.475 ± 0.083
E55C | -0.02 ± 0.061
E55N | -0.055 ± 0.091
E55K | -0.02 ± 0.079
E55T | 0.026 ± 0.054
V41D | -0.815 ± 0.25
